Tests used:
Assay in all cases: two-hybrid
[1] = biological target: SARS-CoV accessory protein 8a (yeast two-hybrid fusions) (SARS-CoV Tor2 isolate)
[2] = biological target: SARS-CoV accessory protein 9b (yeast two-hybrid fusions) (SARS-CoV Tor2 isolate)
[3] = biological target: SARS-CoV accessory protein ORF14 (yeast two-hybrid fusions) (SARS-CoV Tor2 isolate)

Substance	α-Galactosidase [1]	β-Galactosidase [1]	α-Galactosidase [2]	β-Galactosidase [2]	α-Galactosidase [3]	β-Galactosidase [3]
SARS-CoV accessory protein 9b (yeast two-hybrid fusions) (natural protein)	1.17	6.91	2.52	8.8		
SARS-CoV accessory protein ORF14 (yeast two-hybrid fusions) (natural protein)					1.84	6.03

Reference: PMC4629423
